Source: patent publication US20200062844A1 (Regeneron, published 2020)

Key:
[1] = biological target: T1, monkey (cynomolgus) FcεR1α expressed on cells (cynomolgus); assay: flow cytometry, 70 nM antibody on HEK293/mfFcεR1α/hFcεR1β/hFcεR1γ cells pre-incubated with 70 nM human IgE
T1 construct: range 4-260; On HEK293 cells, co-expressed with human FcεR1β and FcεR1γ; also called mfFcεR1α; HEK293/mfFcεR1α/hFcεR1β/hFcεR1γ cells
Experimental: (§1) For flow cytometry analysis, HEK293, HEK293/hFcεR1α/hFcεR1β/hFcεR1γ and HEK293/mf FcεR1α/hFcεR1β/hFcεR1γ cells were collected after dissociation using Enzyme Free Dissociation Buffer (Millipore Cat# S-004), and the cells were pre-incubated with or without 70 nM human IgE, for 30 minutes on ice in FACS buffer (PBS, without Ca⁺⁺ and Mg⁺⁺, (Irvine Scientific, Cat#9240) containing 2% FBS). Jurkat/NFAT-luc cells were also collected. The antibodies at the concentration of 70 nM were then added to 1×10⁶ cells/well of each cell type at 4° C. for 30 minutes. […] Cells were fixed using BD CytoFix™ (Becton Dickinson, Cat. #554655) and analyzed on Accuri™ C6 (BD) or CytoFLEX Flow cytometer (Beckman Coulter). Unstained and secondary antibody alone controls were also tested for all cell lines and a sample was evaluated for viability using the Far Red Fluo viability dye (Thermo Fisher, Cat#L10120) according to the manufacturer's protocol. The results were analyzed using FlowJo software (version 10.0.8, FlowJo) to determine the geometric means of fluorescence for viable cells and the binding ratio was calculated with the mean fluorescence intensity (MFI) of the experimental condition normalized by the MFI of the unstained respective cells.

[2] = biological target: T2, human CD3 expressed in Jurkat cells (human, UniProt P07766 23-207; P04234 22-171; P20963 22-164; P09693 23-182); assay: cell-based or functional assay
T2 sequence (P07766 23-207 limits assumed, chain 1 of 4): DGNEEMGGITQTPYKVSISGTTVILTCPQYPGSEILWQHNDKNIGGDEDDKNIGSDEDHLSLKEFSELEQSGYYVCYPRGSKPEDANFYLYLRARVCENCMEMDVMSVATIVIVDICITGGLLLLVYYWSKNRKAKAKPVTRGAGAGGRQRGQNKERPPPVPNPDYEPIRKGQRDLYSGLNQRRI
T2 sequence (P04234 22-171 limits assumed, chain 2 of 4): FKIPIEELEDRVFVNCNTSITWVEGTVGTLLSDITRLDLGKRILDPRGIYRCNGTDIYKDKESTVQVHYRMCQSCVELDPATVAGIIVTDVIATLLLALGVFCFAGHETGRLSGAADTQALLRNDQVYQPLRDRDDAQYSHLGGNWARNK
T2 sequence (P20963 22-164 limits assumed, chain 3 of 4): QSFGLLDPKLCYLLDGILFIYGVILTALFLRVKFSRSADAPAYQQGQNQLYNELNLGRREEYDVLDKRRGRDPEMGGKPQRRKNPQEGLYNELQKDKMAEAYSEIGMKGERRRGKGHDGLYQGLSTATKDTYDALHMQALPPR
T2 sequence (P09693 23-182 limits assumed, chain 4 of 4): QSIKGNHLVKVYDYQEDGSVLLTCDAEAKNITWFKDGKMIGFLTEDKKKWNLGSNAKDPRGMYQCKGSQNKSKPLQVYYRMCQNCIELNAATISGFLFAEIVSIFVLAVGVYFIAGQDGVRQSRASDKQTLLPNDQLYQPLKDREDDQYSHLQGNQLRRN

[3] = biological target: T3, human FcεR1α expressed on cells (human, UniProt P12319 26-257); assay: cell-based or functional assay
T3 sequence (looked up): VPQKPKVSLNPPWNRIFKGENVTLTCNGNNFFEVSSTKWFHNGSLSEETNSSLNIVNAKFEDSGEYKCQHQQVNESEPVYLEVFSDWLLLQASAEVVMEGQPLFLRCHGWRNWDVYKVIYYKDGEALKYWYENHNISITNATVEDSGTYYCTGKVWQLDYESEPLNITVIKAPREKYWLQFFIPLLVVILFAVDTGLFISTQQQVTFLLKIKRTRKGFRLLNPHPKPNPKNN

hFcεR1α.MMH [4] = biological target: T4, hFcεR1α.MMH (human); assay: SPR (Biacore 8k), antibody captured on anti-human Fc, hFcεR1α.MMH injected, 25°C
T4 construct: also called ectodomain of human FcεR1α with C-term myc-myc-6×His tag
T4 chain: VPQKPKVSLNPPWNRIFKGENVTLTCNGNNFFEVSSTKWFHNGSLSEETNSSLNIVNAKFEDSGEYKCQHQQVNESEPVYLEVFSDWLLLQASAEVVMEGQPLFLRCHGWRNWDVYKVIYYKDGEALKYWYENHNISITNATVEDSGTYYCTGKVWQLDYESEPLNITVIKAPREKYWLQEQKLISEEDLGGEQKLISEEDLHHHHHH
Experimental: (§2) Equilibrium dissociation constants (KD) for human or cynomolgus FcεR1α ectodomain binding to purified anti-FcεR1α monoclonal antibodies (mAbs) and CD3×FcεR1α bispecific antibodies (bsAbs) were determined using a real-time surface plasmon resonance biosensor (SPR-Biacore), Biacore 8k. All binding studies were performed in 10 mM HEPES, 150 mM NaCl, 3 mM EDTA, and 0.05% v/v surfactant Tween-20, pH 7.4 (HBS-ET) running buffer at 25° C. and 37° C.
(§3) The Biacore CM4 sensor surface was first derivatized by amine coupling with a monoclonal mouse anti-human Fc antibody to capture approximately 500-900 RUs anti-FcεR1α monoclonal antibodies or anti-CD3×FcεR1α bispecific monoclonal antibodies. 1 RU (response unit) represents 1 pg of protein per mm², as defined by the manufacturer. The ectodomain of human and cynomolgus FcεR1α reagents were expressed with a C-term myc-myc-6×His tag-hFcεR1α.MMH (SEQ ID NO: 57) and mfFcεR1α.MMH (SEQ ID NO: 58). Different concentrations of FcεR1α reagents were prepared in HBS-ET running buffer (600 nM-7.4 nM; serially diluted by 3-fold) and injected over anti-human Fc captured anti-FcεR1α monoclonal antibodies or anti-CD3×FcεR1α bispecific monoclonal antibodies surfaces for 1 minute at a flow rate of 30 μL/minute. The dissociation of bound FcεR1α reagents was monitored for 4 minutes in HBS-ET running buffer. Association (kₐ) and dissociation (kd) rate constants were determined by fitting the real-time binding sensorgrams to a 1:1 binding model with mass transport limitation using Biacore 8k evaluation software. Binding dissociation equilibrium constants (KD) and dissociative half-lives (t½) were calculated from the kinetic rate constants as: […]

mfFcεR1α.MMH [5] = biological target: T5, mfFcεR1α.MMH (cynomolgus (Macaca fascicularis)); assay: SPR (Biacore 8k), antibody captured on anti-human Fc, mfFcεR1α.MMH injected, 25°C
T5 construct: also called mfFceR1a.MMH; ectodomain of cynomolgus FcεR1α with C-term myc-myc-6×His tag
T5 chain: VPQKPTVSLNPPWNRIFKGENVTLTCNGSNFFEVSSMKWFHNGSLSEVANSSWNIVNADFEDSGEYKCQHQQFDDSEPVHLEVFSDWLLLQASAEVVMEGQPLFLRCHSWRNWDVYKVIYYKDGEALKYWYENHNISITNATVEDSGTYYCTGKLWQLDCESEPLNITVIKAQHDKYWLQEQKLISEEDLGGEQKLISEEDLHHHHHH
Experimental: as §2, §3

[6] = biological target: T3, human FcεR1α expressed on cells; assay: cell-based or functional assay; remark: listed apart in the source
[7] = biological target: T1, monkey (cynomolgus) FcεR1α expressed on …; assay: flow cytometry, 70 nM antibody on HEK293/mfFcεR1α/hFcεR1β/hFcεR1γ cells, No IgE
Experimental: as §1

[8] = biological target: T3, human FcεR1α expressed on cells; assay: flow cytometry, 70 nM antibody on HEK293/hFcεR1α/hFcεR1β/hFcεR1γ cells pre-incubated with 70 nM human IgE
Experimental: as §1

mfFcεR1α.MMH [9] = biological target: T5, mfFcεR1α.MMH; assay: SPR (Biacore 8k), antibody captured on anti-human Fc, mfFcεR1α.MMH injected, 37°C
Experimental: as §2, §3

[10] = biological target: T3, human FcεR1α expressed on cells; assay: flow cytometry, 70 nM antibody on HEK293/hFcεR1α/hFcεR1β/hFcεR1γ cells, No IgE
Experimental: as §1

[11] = biological target: T2, human CD3 expressed in Jurkat cells; assay: flow cytometry, 70 nM antibody on Jurkat/NFAT-luc cells, No IgE
Experimental: as §1

hFcεR1α.MMH [12] = biological target: T4, hFcεR1α.MMH; assay: SPR (Biacore 8k), antibody captured on anti-human Fc, hFcεR1α.MMH injected, 37°C
Experimental: as §2, §3

B1: bsAb24919D (bispecific antibody, human IgG4 S228P, kappa)
heavy 1: QVQLQESGPGLVKPSETLSLTCTVSGDSISDYYWIWIRQPPGKGLEWIGYIYYSGSTNYNPSLKSRVTISVATSKNQFSLKLRSVTAADTAMYYCARRNNWNHVRAFDIWGQGTMVTVSSASTKGPSVFPLAPCSRSTSESTAALGCLVKDYFPEPVTVSWNSGALTSGVHTFPAVLQSSGLYSLSSVVTVPSSSLGTKTYTCNVDHKPSNTKVDKRVESKYGPPCPPCPAPPVAGPSVFLFPPKPKDTLMISRTPEVTCVVVDVSQEDPEVQFNWYVDGVEVHNAKTKPREEQFNSTYRVVSVLTVLHQDWLNGKEYKCKVSNKGLPSSIEKTISKAKGQPREPQVYTLPPSQEEMTKNQVSLTCLVKGFYPSDIAVEWESNGQPENNYKTTPPVLDSDGSFFLYSRLTVDKSRWQEGNVFSCSVMHEALHNHYTQKSLSLSLGK
heavy 2: EVQLVESGGGLVQPGRSLRLSCAASGFTFDDYSMHWVRQAPGKGLEWVSGISWNSGSIGYADSVKGRFTISRDNAKNSLYLQMNSLRAEDTALYYCAKYGSGYGKFYYYGMDVWGQGTTVTVSSASTKGPSVFPLAPCSRSTSESTAALGCLVKDYFPEPVTVSWNSGALTSGVHTFPAVLQSSGLYSLSSVVTVPSSSLGTKTYTCNVDHKPSNTKVDKRVESKYGPPCPPCPAPPVAGPSVFLFPPKPKDTLMISRTPEVTCVVVDVSQEDPEVQFNWYVDGVEVHNAKTKPREEQFNSTYRVVSVLTVLHQDWLNGKEYKCKVSNKGLPSSIEKTISKAKGQPREPQVYTLPPSQEEMTKNQVSLTCLVKGFYPSDIAVEWESNGQPENNYKTTPPVLDSDGSFFLYSRLTVDKSRWQEGNVFSCSVMHEALHNRFTQKSLSLSPGK
light: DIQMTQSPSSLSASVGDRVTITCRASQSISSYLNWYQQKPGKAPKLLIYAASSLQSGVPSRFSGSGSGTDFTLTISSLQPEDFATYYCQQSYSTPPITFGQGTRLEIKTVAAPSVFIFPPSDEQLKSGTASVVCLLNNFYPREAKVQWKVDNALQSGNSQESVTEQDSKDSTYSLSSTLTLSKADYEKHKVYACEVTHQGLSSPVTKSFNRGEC
notes: IgG4 Fc domain; two distinct heavy chains with a common light chain; also called anti-FcεR1α×CD3 bispecific antibody; FcεR1α × hCD3
Binding Ratio (MFI of Treated/MFI of Unstained) [1]: 236 | EC50 [M], NFAT-luciferase in Jurkat/NFAT-luc with HEK293/hFcεR1α/hFcεR1β/hFcεR1γ cells, 10 nM IgE [2]: 1.5e-09 M | EC50 [M], NFAT-luciferase in Jurkat/NFAT-luc with HEK293/hFcεR1α/hFcεR1β/hFcεR1γ cells, No IgE [2]: 3.4e-10 M | Fold Activation, Jurkat/NFAT-luc with HEK293/hFcεR1α/hFcεR1β/hFcεR1γ cells, 10 nM IgE [2]: 32 fold | Fold Activation, Jurkat/NFAT-luc with HEK293/hFcεR1α/hFcεR1β/hFcεR1γ cells, No IgE [2]: 32 fold | EC80, cleaved caspase 3+ cleaved PARP+ HEK293/hFcεR1α/hFcεR1β/hFcεR1γ target cells with activated CD8+ T cells [3]: 0.0346 nM | Maximum percent apoptotic cells, HEK293/hFcεR1α/hFcεR1β/hFcεR1γ target cells with activated CD8+ T cells [3]: 56% | 600 nM hFcεR1α.MMH Bound (RU) (hFcεR1α.MMH [4]): 72 RU | Kd (hFcεR1α.MMH [4]): 152 nM | koff (hFcεR1α.MMH [4]): 0.0104 s⁻¹ | kon (hFcεR1α.MMH [4]): 68200 M⁻¹ s⁻¹ | t½ (hFcεR1α.MMH [4]): 66 s | 600 nM mfFceR1a.MMH Bound (RU) (mfFcεR1α.MMH [5]): 40 RU | Kd (mfFcεR1α.MMH [5]): 363 nM | koff (mfFcεR1α.MMH [5]): 0.0144 s⁻¹ | kon (mfFcεR1α.MMH [5]): 39600 M⁻¹ s⁻¹ | t½ (mfFcεR1α.MMH [5]): 48 s | EC50, decrease of primary human basophils within PBMC with activated CD8+ T cells [6]: 3.75 nM | Maximum percent basophil decrease, PBMC with activated CD8+ T cells [6]: 90.6% | Binding Ratio (MFI of Treated/MFI of Unstained) [7]: 166 | Binding Ratio (MFI of Treated/MFI of Unstained) [8]: 277 | 600 nM mfFceR1a.MMH Bound (RU) (mfFcεR1α.MMH [9]): 20 RU | Kd (mfFcεR1α.MMH [9]): 1030 nM | koff (mfFcεR1α.MMH [9]): 0.0399 s⁻¹ | kon (mfFcεR1α.MMH [9]): 38600 M⁻¹ s⁻¹ | t½ (mfFcεR1α.MMH [9]): 17.4 s | Binding Ratio (MFI of Treated/MFI of Unstained) [10]: 269 | Binding Ratio (MFI of Treated/MFI of Unstained) [11]: 48 | 600 nM hFcεR1α.MMH Bound (RU) (hFcεR1α.MMH [12]): 43 RU | Kd (hFcεR1α.MMH [12]): 801 nM | koff (hFcεR1α.MMH [12]): 0.0588 s⁻¹ | kon (hFcεR1α.MMH [12]): 73500 M⁻¹ s⁻¹ | t½ (hFcεR1α.MMH [12]): 12 s
